Source: patent US10087225B2, “Formulation of MK2 inhibitor peptides” (MOERAE MATRIX, INC., priority 2015, dated 2018)

How the values were obtained:
HCAVSMCs = assay: Cytosolic vs. organelle bound peptide by digitonin semi-permeabilization; format: cell-based, human; conditions: Bafilomycin treatment
Description: In order to quantify the cytosolic bioavailability of the MK2i and HSP20 peptides a method to separate cytosolic and organelle bound (i.e. endosomal, lysosomal, golgi, etc.) peptide was adapted from the methods developed by Liu et a140. The procedure was optimized for this experiment based upon LDH release from HCAVSMCs treated with varying concentrations of digitonin (Calbiochem) in buffer (150 mM NaCl, 0.2 mM EDTA, 20 mM HEPES-NaOH (pH 7.4), 2 mM DTT and 2 mM MgCL2) on ice for 10 mins on a rotary shaker operating at 100 RPM (supplementary FIG. 3). A concentration of 25 μg/mL was then chosen as the optimal digitonin concentration for selective semi-permeabilization of the HCAVSMC membrane and subsequently used for the analysis of intracellular peptide distribution.
To quantify intracellular distribution of the MK2i and p-HSP20 peptides, HCAVSMCs were seeded into a 96 well plate at a density of 20,000 cells/cm2 and allowed to adhere overnight in complete growth medium. A portion of the cells were pretreated with 500 nM Bafilomycin A1 (Sigma) for 30 minutes, and the Bafilomycin was included in subsequent peptide/NP treatment and in the post-treatment incubation phase to inhibit endosomal acidification. […] Treatments were removed and cells were incubated in fresh medium with or without 500 nM Bafilomycin A1 for 6 hours. […]

[1] = human, HCAVSMCs, 10 μM, intracellular half-life (t1/2), fluorescence 0 and 5 days after treatment removal
Description: HCAVSMCs were grown to 80-90% confluence, harvested, and seeded at 20,000 cells/well in a 24 well plate and allowed to adhere overnight in low serum media (DMEM, 1% FBS, and 1% P/S). […] Following treatment, cells were washed with PBS −/−, washed with CellScrub buffer (Genlantis) for 10 minutes at room temperature to remove extracellular polyplexes and/or peptide, washed 2× in PBS −/−, and given fresh complete growth media. Cells were then incubated for an additional 0, 12, 24, 72, or 120 hours. Cells were then washed with PBS −/−, trypsinized, and resuspended in 0.1% Trypan blue in PBS (−/−) for analysis on a FACSCalibur flow cytometer (Becton Dickinson) with BD CellQuest™ Pro software (V 5.2). Data was exported and analyzed with FlowJo software (V 7.6.4). All samples were run in triplicate.

Ab1(M351T)(h) = Ab1(M351T)(h) (Homo sapiens, UniProt P00519, M351T); assay: Kinase Profiling Assay; format: biochemical; conditions: 100 μM
CDK3/cyclinE(h) = CDK3/cyclinE(h) (Homo sapiens, UniProt Q00526); assay: Kinase Profiling Assay; format: biochemical; conditions: 100 μM
CDK3/cyclinE(h), sequence (Q00526 whole entry): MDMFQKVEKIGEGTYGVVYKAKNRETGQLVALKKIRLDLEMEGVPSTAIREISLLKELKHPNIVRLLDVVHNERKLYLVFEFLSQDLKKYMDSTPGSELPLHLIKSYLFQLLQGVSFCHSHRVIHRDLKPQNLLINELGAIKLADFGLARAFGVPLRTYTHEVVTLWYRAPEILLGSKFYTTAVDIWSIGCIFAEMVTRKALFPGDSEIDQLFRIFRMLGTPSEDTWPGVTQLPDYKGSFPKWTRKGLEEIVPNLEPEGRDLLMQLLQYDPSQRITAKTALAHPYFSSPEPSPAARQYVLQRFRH
CDK3/cyclinE(h), sequence (P24864 whole entry partner): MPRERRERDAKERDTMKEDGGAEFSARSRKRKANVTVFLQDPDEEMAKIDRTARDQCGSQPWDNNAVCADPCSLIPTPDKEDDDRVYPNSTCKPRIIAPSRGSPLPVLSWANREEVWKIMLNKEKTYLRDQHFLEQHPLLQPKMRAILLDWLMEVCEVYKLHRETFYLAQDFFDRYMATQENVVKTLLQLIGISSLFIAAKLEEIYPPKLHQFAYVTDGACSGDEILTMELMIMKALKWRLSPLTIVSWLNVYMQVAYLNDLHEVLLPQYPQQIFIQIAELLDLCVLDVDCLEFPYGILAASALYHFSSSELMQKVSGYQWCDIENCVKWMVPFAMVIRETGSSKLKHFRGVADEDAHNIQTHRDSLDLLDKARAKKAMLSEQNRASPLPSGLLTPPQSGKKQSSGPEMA

DDR2(h) = molecular target: T1, DDR2(h) (Homo sapiens, UniProt Q16832); assay: Kinase Profiling Assay; format: biochemical; conditions: 100 μM
T1 sequence (Q16832 22-855): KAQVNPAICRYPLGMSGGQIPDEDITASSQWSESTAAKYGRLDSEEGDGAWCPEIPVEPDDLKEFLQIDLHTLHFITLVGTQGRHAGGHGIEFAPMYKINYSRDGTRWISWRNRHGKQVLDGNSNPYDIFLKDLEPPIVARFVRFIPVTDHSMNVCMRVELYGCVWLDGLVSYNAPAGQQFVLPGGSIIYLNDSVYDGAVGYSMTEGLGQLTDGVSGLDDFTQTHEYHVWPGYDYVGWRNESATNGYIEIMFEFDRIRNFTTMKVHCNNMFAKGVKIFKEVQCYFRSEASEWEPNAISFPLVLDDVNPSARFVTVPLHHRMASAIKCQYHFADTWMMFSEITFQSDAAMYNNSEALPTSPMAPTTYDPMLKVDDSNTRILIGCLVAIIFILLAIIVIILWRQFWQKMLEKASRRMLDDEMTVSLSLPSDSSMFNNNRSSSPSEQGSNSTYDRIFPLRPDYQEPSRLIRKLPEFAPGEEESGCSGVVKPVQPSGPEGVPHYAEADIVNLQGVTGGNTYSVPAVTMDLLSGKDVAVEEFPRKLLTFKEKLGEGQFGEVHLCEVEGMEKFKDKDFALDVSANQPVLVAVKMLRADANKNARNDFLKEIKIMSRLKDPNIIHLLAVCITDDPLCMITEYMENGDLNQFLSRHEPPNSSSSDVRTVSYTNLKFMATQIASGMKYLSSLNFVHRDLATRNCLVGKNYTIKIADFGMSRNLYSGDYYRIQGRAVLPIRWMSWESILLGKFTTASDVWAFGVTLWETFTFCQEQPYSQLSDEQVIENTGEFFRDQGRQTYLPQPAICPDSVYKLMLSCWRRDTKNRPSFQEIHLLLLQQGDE

Hck(h) = Hck(h) (Homo sapiens, UniProt P08631); assay: Kinase Profiling Assay; format: biochemical; conditions: 100 μM
Hck(h), sequence (P08631 whole entry): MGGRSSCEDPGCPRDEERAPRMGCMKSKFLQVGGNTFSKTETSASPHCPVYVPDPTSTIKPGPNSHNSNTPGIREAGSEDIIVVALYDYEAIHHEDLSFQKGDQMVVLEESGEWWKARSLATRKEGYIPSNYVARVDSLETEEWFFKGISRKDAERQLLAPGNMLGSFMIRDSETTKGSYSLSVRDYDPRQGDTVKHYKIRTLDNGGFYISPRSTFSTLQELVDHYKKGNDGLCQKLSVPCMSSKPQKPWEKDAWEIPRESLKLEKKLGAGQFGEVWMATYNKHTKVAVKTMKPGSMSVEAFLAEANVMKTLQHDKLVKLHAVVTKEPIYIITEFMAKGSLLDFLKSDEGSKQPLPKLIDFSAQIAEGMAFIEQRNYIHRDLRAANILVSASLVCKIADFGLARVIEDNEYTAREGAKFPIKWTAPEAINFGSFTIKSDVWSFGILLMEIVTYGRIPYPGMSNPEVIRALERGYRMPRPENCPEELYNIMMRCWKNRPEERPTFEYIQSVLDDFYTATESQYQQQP

SAPK4(h) = molecular target: T2, SAPK4(h) (Homo sapiens, UniProt O15264); assay: Kinase Profiling Assay; format: biochemical; conditions: 100 μM
T2 sequence (O15264 1-365): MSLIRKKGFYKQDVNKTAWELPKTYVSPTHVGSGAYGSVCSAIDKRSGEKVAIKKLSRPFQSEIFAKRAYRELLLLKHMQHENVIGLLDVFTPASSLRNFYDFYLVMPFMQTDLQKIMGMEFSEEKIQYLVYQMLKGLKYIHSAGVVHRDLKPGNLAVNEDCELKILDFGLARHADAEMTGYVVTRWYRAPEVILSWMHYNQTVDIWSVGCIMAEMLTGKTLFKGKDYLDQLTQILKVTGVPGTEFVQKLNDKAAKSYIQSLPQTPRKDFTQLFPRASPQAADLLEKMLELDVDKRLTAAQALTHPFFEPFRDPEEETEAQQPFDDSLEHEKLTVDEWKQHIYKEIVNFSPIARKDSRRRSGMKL

Plk1(h) = Plk1(h) (Homo sapiens, UniProt P53350); assay: Kinase Profiling Assay; format: biochemical; conditions: 100 μM
Plk1(h), sequence (P53350 whole entry): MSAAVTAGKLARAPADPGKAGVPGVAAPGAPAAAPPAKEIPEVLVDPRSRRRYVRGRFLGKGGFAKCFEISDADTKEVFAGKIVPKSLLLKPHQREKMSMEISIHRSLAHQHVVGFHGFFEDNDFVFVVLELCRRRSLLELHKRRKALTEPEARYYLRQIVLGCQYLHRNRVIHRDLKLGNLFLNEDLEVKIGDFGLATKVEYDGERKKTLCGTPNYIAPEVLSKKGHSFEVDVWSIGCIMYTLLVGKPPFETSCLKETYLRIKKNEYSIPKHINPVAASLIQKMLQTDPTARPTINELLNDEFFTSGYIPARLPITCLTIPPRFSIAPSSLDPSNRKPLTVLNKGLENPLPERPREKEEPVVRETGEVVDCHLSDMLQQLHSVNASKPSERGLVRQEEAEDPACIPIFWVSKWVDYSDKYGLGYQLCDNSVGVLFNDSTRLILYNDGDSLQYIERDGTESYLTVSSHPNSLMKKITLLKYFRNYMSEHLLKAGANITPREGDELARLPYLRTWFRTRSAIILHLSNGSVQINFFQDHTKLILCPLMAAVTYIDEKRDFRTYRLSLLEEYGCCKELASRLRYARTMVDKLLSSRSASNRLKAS

TAK1(h) = molecular target: T3, TAK1(h) (Homo sapiens, UniProt O43318); assay: Kinase Profiling Assay; format: biochemical; conditions: 100 μM
T3 sequence (O43318 1-303 limits assumed): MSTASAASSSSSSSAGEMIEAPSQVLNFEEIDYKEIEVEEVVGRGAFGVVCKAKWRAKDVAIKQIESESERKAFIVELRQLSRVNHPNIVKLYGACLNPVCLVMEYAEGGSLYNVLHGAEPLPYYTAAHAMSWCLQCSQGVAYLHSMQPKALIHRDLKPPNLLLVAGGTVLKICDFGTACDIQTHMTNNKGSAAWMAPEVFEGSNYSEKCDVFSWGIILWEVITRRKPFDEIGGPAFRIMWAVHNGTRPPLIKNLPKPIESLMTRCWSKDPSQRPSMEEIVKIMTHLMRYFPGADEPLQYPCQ

Tie2(R849W)(h) = Tie2(R849W)(h) (Homo sapiens, UniProt Q02763, R849W); assay: Kinase Profiling Assay; format: biochemical; conditions: 100 μM
Tie2(R849W)(h), sequence (Q02763 23-1124 R849W): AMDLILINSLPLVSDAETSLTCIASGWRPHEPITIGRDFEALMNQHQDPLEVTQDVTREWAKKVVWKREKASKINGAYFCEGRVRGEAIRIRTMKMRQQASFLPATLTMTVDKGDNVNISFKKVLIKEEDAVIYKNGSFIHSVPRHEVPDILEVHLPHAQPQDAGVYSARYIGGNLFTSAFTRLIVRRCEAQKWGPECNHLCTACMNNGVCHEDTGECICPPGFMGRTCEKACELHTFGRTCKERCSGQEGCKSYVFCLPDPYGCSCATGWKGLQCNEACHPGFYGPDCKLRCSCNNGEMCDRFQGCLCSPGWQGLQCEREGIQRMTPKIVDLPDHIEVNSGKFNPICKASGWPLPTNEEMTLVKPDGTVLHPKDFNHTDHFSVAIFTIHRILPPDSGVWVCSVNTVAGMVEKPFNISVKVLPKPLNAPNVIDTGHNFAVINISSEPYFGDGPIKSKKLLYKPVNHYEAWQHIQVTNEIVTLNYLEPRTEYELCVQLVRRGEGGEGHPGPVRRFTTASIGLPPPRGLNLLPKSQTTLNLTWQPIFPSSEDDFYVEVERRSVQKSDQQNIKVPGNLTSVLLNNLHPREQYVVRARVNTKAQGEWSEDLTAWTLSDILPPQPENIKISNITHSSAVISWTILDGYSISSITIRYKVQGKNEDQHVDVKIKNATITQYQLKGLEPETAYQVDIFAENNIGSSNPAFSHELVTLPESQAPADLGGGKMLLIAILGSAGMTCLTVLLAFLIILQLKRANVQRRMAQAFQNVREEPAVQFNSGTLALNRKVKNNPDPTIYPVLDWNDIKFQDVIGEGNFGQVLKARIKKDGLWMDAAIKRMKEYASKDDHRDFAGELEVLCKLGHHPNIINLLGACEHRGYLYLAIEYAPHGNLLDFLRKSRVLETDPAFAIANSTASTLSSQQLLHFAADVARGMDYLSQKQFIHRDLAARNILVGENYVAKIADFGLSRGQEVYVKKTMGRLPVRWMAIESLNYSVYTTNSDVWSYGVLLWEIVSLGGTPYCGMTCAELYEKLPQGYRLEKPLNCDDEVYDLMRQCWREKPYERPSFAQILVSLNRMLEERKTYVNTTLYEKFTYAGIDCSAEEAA

Yes(h) = Yes(h) (Homo sapiens, UniProt P07947); assay: Kinase Profiling Assay; format: biochemical; conditions: 100 μM
Yes(h), sequence (P07947 whole entry): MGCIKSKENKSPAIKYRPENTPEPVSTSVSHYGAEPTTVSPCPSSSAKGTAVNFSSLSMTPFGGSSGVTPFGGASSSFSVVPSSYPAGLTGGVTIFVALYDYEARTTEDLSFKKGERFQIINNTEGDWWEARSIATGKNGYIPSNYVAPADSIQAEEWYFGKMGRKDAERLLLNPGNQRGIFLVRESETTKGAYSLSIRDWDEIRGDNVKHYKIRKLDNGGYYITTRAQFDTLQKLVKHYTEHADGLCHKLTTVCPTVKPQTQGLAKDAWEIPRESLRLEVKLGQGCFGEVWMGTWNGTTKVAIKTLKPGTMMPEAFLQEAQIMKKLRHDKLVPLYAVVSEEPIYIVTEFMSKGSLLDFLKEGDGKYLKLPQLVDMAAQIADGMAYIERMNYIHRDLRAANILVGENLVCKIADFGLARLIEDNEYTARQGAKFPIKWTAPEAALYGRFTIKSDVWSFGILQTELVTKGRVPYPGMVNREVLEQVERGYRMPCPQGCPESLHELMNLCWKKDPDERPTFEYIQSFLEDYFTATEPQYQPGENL

## H-YARAAARQARAKALARQLGVAA-OH [MMI-0100]
HCAVSMCs
  cytosolic fraction of internalized free peptide: 9.64%±8.17%
[1]
  half-life: 96 h

## HRRIKAWLKKIKALARQLGVAA (Mammalian) [MMI-0500]
Ab1(M351T)(h)
  % activity: 61%
CDK3/cyclinE(h)
  % activity: 8%
DDR2(h)
  % activity: 79%
Hck(h)
  % activity: 78%
SAPK4(h)
  % activity: 48%

## YARAAARQARAKALNRQLGVA (Mammalian) [MMI-0200]
Plk1(h)
  % activity: 128%
TAK1(h)
  % activity: 124%
Tie2(R849W)(h)
  % activity: 89%
Yes(h)
  % activity: 93%
